Source: the Human Domainome abundance scans (Beltran et al. 2025)
± gives the uncertainty stated by the source.

B1: TOX high mobility group box family member 3, residues 256 to 323; numbered along this chain, O15405 (parent)
chain: QKPVSAYALFFRDTQAAIKGQNPNATFGEVSKIVASMWDSLGEEQKQVYKRKTEAAKKEYLKALAAYR

Variants of: B1
Test: abundance fitness (aPCA) (normalised: wild type 0, dead -1); higher = more abundant; growth selection in yeast, the domain comes from the species named
Conditions: Homo sapiens

| Variant | abundance fitness |
| --- | --- |
| QKPVSAYALFFRDTQAAIKGKNPNATFGEVSKIVASMWDSLGEEQKQVYKRKTEAAKKEYLKALAAYR | 0.029 ± 0.1 |
| QKPVSAYALFFRDTQAAIKGTNPNATFGEVSKIVASMWDSLGEEQKQVYKRKTEAAKKEYLKALAAYR | -0.011 ± 0.084 |
| QKPVSAYALFFRDTQAAIKGSNPNATFGEVSKIVASMWDSLGEEQKQVYKRKTEAAKKEYLKALAAYR | -0.029 ± 0.038 |
| QKPVSAYALFFRDTQAAIKGPNPNATFGEVSKIVASMWDSLGEEQKQVYKRKTEAAKKEYLKALAAYR | -0.722 ± 0.14 |
| QKPVSAYALFFRDTQAAIKGQNPNATFGEVSKIVASMWDSLGEEQKQVYKRKTESAKKEYLKALAAYR | -0.029 ± 0.041 |
| QKPVSAYALFFRDTQAAIKGQNPNATFGEVSKIVASMWDSLGEEQKQVYKRKTEQAKKEYLKALAAYR | -0.001 ± 0.077 |
| QKPVSAYASFFRDTQAAIKGQNPNATFGEVSKIVASMWDSLGEEQKQVYKRKTEAAKKEYLKALAAYR | 0.077 ± 0.091 |
| QKPVSAYALFFRDTQAAIKGQNPNATFGEVSKIVASLWDSLGEEQKQVYKRKTEAAKKEYLKALAAYR | -0.219 ± 0.047 |
| QKPVSAYALFFRDTQAAIKGQNPNATFGEVSKIVASGWDSLGEEQKQVYKRKTEAAKKEYLKALAAYR | -0.486 ± 0.067 |
| QKPVSAYALFFTDTQAAIKGQNPNATFGEVSKIVASMWDSLGEEQKQVYKRKTEAAKKEYLKALAAYR | -0.146 ± 0.11 |
| QKPVSAYALFFMDTQAAIKGQNPNATFGEVSKIVASMWDSLGEEQKQVYKRKTEAAKKEYLKALAAYR | -0.052 ± 0.063 |
| QKPVSAYALFFRDTQAAIKGQNPNATFGEVSKIVASMWDSLGEEQKQVYKRKTEAAKKEYLKALAAYK | 0.101 ± 0.11 |
| QKPVSAYALFFRDTQAAIKGQNPNATFGEVSKIVASMWDSLGEEQKQVYKRKTEAAKKEYLKALAAYA | -0.07 ± 0.1 |
| QKPVSAYALFFRDTQAAIKGQNPNATFGEVSKIVASMWDSLGEEQKQVYKRKTRAAKKEYLKALAAYR | -0.203 ± 0.048 |
| QKPVSAYALFFRDTQAAIKGQNPNAMFGEVSKIVASMWDSLGEEQKQVYKRKTEAAKKEYLKALAAYR | -0.862 ± 0.11 |
| QKPVSAYALFFRDTQAAIKGQNPNALFGEVSKIVASMWDSLGEEQKQVYKRKTEAAKKEYLKALAAYR | -0.544 ± 0.068 |
| QKPVSAYALFFRDTQAAIKGQNPNATFGEVSKIVASMWDSLGEEQVQVYKRKTEAAKKEYLKALAAYR | -0.437 ± 0.054 |
| QKPVSAYALFFRDTQAAIKGQNPNATFGEVSKIVASMWDSLGEEQGQVYKRKTEAAKKEYLKALAAYR | -0.8 ± 0.075 |
| QKPVSAYALFFRDTQAAIKGQNPNATFGEVSKTVASMWDSLGEEQKQVYKRKTEAAKKEYLKALAAYR | 0.021 ± 0.061 |
| QKPVSAYALFFRDTQAAIKGQNPNATFGEVSKIVGSMWDSLGEEQKQVYKRKTEAAKKEYLKALAAYR | -0.122 ± 0.056 |

| Variant | abundance fitness |
| --- | --- |
| QKPVSAGALFFRDTQAAIKGQNPNATFGEVSKIVASMWDSLGEEQKQVYKRKTEAAKKEYLKALAAYR | -0.33 ± 0.07 |
| QKPVSAYALFFRDTQAAISGQNPNATFGEVSKIVASMWDSLGEEQKQVYKRKTEAAKKEYLKALAAYR | -0.127 ± 0.06 |
| QKPVSAYALFFRDTQAAIMGQNPNATFGEVSKIVASMWDSLGEEQKQVYKRKTEAAKKEYLKALAAYR | 0.027 ± 0.083 |
| QKPVSAYALFFRDTQAHIKGQNPNATFGEVSKIVASMWDSLGEEQKQVYKRKTEAAKKEYLKALAAYR | -0.044 ± 0.13 |
| QKPVSAYALFFRDTQAAIKGQNPNATFGEVSKIVASMWDSLGEEQKQVYKRKTEAAKKEILKALAAYR | -0.556 ± 0.2 |
| QKPVSAYALFFRDTQAAIKGQNPNATFGEVSKIVASMWDSLGEEQKQVYKRKTEAAKKERLKALAAYR | -0.129 ± 0.069 |
| QKPVSAYALFFRDTQAAIKGQNPNNTFGEVSKIVASMWDSLGEEQKQVYKRKTEAAKKEYLKALAAYR | -0.677 ± 0.089 |
| QKPVSAYALFFRDTQAAIKGQNPNPTFGEVSKIVASMWDSLGEEQKQVYKRKTEAAKKEYLKALAAYR | -0.874 ± 0.15 |
| QKPVSAYALFFRDTQAAIKGQNPNATFGEVSKIVASMWDSLGEEQKQVYKGKTEAAKKEYLKALAAYR | -0.032 ± 0.049 |
| QKPVSAYALFFRDTQAAIKGQNPNATFGEVSKIVASMWDSLGEEQKQVYKLKTEAAKKEYLKALAAYR | 0.021 ± 0.04 |
| QKPYSAYALFFRDTQAAIKGQNPNATFGEVSKIVASMWDSLGEEQKQVYKRKTEAAKKEYLKALAAYR | -0.24 ± 0.097 |
| QKPVSAYALFFRDTQAAIKGQNPNATFGEVSKIVASMWDSLGEEYKQVYKRKTEAAKKEYLKALAAYR | -0.373 ± 0.23 |
| QKPVSAYALFFRDTQAAIKGQNPNATFGEVSKIVASMWDSLGEEQKQVYKRKTEAAKKEYLKALGAYR | 0.067 ± 0.047 |
| QKPVSAYALFFRDTQAAIKGQNPNATFGEVKKIVASMWDSLGEEQKQVYKRKTEAAKKEYLKALAAYR | 0.116 ± 0.084 |
| QKPVSAYALFFRDTQAAIKGQNPNATFGEVFKIVASMWDSLGEEQKQVYKRKTEAAKKEYLKALAAYR | -0.664 ± 0.12 |
| QKPVSAYALFFRDTQAAIKGQNPNATFGEVSKIVASMWDSLGEEQKFVYKRKTEAAKKEYLKALAAYR | -0.445 ± 0.14 |
| QKPVSAYALFFRDTQAAIKGQNPNATFGEVSKIVASMWDSLGEEQKQVYKRKTEAAKKEYLKALAADR | 0.256 ± 0.085 |
| QKPVSAYALFFRDTQAAIKGQNPNATFGEVSKIVASMWDSLGEEQKQVYKRKTEAAKKEYKKALAAYR | 0.247 ± 0.076 |
| QKPVSAYALFFRDTQAAIKGQNPNATFGEVSKIVASMWDSLGPEQKQVYKRKTEAAKKEYLKALAAYR | 0.058 ± 0.056 |
